Data from US20160222124A1 (published 2016).

Experiments:
human CD40 (cellular) [1] = target: T1, human CD40 (cellular) (human, UniProt P25942 21-277); assay: flow cytometry; RAMOS cells; humanized per legend
Target sequence in this assay (P25942 21-277): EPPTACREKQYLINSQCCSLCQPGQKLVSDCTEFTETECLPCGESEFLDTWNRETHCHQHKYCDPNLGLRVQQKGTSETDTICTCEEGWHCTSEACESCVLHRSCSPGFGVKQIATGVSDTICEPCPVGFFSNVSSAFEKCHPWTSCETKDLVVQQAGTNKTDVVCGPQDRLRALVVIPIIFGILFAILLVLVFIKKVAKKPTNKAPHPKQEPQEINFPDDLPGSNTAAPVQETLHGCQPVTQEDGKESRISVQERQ

human CD40 (cellular) [2] = target: T1, human CD40 (cellular); assay: flow cytometry; CD40-transfected HEK-293 cells; humanized 19B10
human CD40 (cellular) [3] = target: T1, human CD40 (cellular); assay: flow cytometry; CD40-transfected HEK-293 cells
human CD40 (cellular) [4] = target: T1, human CD40 (cellular); assay: flow cytometry; CD40-transfected HEK-293 cells; humanized 10F2
Platelets Cynomolgus = target: T2, Platelets Cynomolgus (cynomolgus monkey, UniProt G7PG38 21-278); assay: flow cytometry, whole blood; cynomolgus platelets
T2 chain: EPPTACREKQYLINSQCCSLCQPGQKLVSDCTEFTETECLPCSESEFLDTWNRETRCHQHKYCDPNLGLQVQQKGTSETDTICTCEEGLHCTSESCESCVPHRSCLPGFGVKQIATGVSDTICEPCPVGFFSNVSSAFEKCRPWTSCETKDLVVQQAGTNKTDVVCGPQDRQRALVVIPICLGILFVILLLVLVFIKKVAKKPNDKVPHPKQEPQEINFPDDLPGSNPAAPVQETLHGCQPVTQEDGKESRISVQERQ

Platelets Human = Platelets Human (human, UniProt P25942 21-277); assay: flow cytometry, whole blood; human platelets
B cells Cynomolgus = target: T3, B cells Cynomolgus (cynomolgus monkey, UniProt G7PG38 21-278); assay: flow cytometry, whole blood; cynomolgus B cells
T3 chain: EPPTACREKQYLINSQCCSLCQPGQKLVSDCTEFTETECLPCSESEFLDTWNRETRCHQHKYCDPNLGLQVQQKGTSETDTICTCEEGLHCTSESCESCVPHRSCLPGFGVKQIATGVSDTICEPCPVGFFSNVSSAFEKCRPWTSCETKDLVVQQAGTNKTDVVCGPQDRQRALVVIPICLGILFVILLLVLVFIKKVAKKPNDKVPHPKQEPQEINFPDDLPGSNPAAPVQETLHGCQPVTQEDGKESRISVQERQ

B cells Human = B cells Human (human, UniProt P25942 21-277); assay: flow cytometry, whole blood; human B cells

B1: 19B10 (antibody, V domains shown)
VH: EVQLQQSGAELVRPGASVQLSCTASGFNIKDYYVHWVKQRPEKGLEWIGRIDPEDGDTKFAPKFQGKATMTADTSSNTVYLHLSSLTSEDTAVYYCTTSYYVGTYGYWGQGTTLTVSS
VL: QIVLTQSPAIMSASPGEKVTITCSASSSVSYMLWFQQKPGTSPKLWIYSTSNLASGVPARFSGSGSGTSYSLTISRMEAEDAATYYCQQRTFYPYTFGGGTKLEIK
EC50 (human CD40 (cellular) [1]): 0.36 nM
EC50 (human CD40 (cellular) [2]): 1.1 nM

B2: Antibody A (antibody, V domains shown)
VH: EVQLVESGGGLVKPGGSLRLSCAASGFTFSDYGMHWVRQAPGKGLEWVAYISSGNRIIYYADTVKGRFTISRDNAKNSLYLQMNSLRAEDTALYYCARQDGYRYAMDYWAQGTLVTVSS
VL: DIVMTQSPDSLAVSLGERATMSCKSSQSLLNSGNQKNYLTWHQQKPGQPPKLLIYWTSTRESGVPDRFSGSGSGTDFTLTISSLQAEDVAVYYCQNDYTYPLTFGGGTKVEIKR
EC50 (human CD40 (cellular) [3]): 1.1 nM

B3: 10F2 (antibody, V domains shown)
VH: EVQLQQSGAELVRPGASVKLSCTASGFNIKDYYIHWVKQRPEKGLEWIGRIDPEDGDTKYDPKFQGKATMTADTSSNTAYLHLSSLTSEDTAVYYCTTSYYVGTYGYWGQGTTLTVSS
VL: QIVLTQSPTIMSASPGEKVIITCSATSSVSYILWFQQKPGTSPKLWIYSTSNLASGVPARFSGSGSGASYSLTISRMEAEDAATYYCQQRTFYPYTFGGGTKLEIK
EC50 (human CD40 (cellular) [4]): 1.9 nM
EC50 (human CD40 (cellular) [1]): 0.21 nM

B4: 20E2 (antibody, V domains shown)
VH: EVQLVESGGGLVKPGGSRKLSCAASGFTFSDYGMHWVRQAPEKGLEWVAYISSGNRIIYYADTVKGRFTISRDNAKNTLFLQMTSLRSEDTALYYCARQDGYRYAMDYWGQGTSVTVSS
VL: DIVMTQSPSSLTVTAGEKVTMSCKSSQSLLNSGNQKNYLTWHQQKPGQPPKLLIYWTSTRESGVPDRFTGSGSGTDFTLTISNLQAEDLAVYYCQNDYTYPLTFGAGTKLELK
EC50 (human CD40 (cellular) [1]): 1.22 nM

B5: 2H11 (antibody, V domains shown)
VH: EVQLQQSGAELVRPGASVKLSCTASGFNIKDYYVHWVKQRPEKGLEWIGRIDPEDGDSKYAPKFQGKATMTADTSSNTAYLHLSSLTSEDTAVYYCTTSYYVGTYGYWGQGTTLTVSS
VL: QIVLTQSPAIMSASPGEKVTITCSASSSVSYMLWFQQKPGTSPKLWIYSTSNLASGVPARFGGSGSGTSYSLTISRMEAEDAATYYCQQRTFYPYTFGGGTKLEIK
EC50 (human CD40 (cellular) [1]): 0.32 nM

B6: 4D11 (antibody, V domains shown)
VH: QLQLQESGPGLLKPSETLSLTCTVSGGSISSPGYYGGWIRQPPGKGLEWIGSIYKSGSTYHNPSLKSRVTISVDTSKNQFSLKLSSVTAADTAVYYCTRPVVRYFGWFDPWGQGTLVTVSS
VL: AIQLTQSPSSLSASVGDRVTITCRASQGISSALAWYQQKPGKAPKLLIYDASNLESGVPSRFSGSGSGTDFTLTISSLQPEDFATYYCQQFNSYPTFGQGTKVEIK
EC50 (Platelets Cynomolgus): 1.2 nM
EC50 (Platelets Human): 0.7 nM
EC50 (B cells Cynomolgus): 0.7 nM
EC50 (B cells Human): 0.3 nM

B7: Antibody C (antibody, V domains shown)
VH: QVQLVQSGAEVKKPGASVKVSCTASGFNIKDYYVHWVKQAPGQGLEWMGRIDPEDGDSKYAPKFQGKATMTADTSTSTVYMELSSLRSEDTAVYYCTTSYYVGTYGYWGQGTLVTVSS
VL: DIQMTQSPSSLSASVGDRVTITCSASSSVSYMLWFQQKPGKAPKLLIYSTSNLASGVPSRFSGSGSGTDFTLTISSLQPEDFATYYCQQRTFYPYTFGGGTKVEIKR
EC50 (human CD40 (cellular) [3]): 1.9 nM
